T1: His6-KstRMtb (KstR) (Mycobacterium tuberculosis H37Rv, UniProt P96856 22-220)
T1 sequence: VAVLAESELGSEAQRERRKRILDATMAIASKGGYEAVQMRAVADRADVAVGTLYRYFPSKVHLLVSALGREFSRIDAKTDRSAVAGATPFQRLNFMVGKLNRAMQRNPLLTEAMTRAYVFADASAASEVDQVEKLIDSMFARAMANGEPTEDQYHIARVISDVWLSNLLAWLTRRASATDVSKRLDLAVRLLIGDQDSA

B1: Rv0223c probe (dsDNA)
DNA 1: GCGAAACGAGAACGTGTTCCATTATTAGG
DNA 2: CCTAATAATGGAACACGTTCTCGTTTCGC
B2: Rv3520c/Rv3521 probe (dsDNA)
DNA 1: TGTCGAGTAGAACAGGTTCTAACAACGGT
DNA 2: ACCGTTGTTAGAACCTGTTCTACTCGACA
B3: unlabelled kstR 29 bp probe (dsDNA)
DNA 1: TGCCCACTAGAACGTGTTCTAATAGTGCT
DNA 2: AGCACTATTAGAACACGTTCTAGTGGGCA
B4: Rv3545c/Rv3546 probe (dsDNA)
DNA 1: ATAGTAATGAAACGTGTTCTAGCCTGGCC
DNA 2: GGCCAGGCTAGAACACGTTTCATTACTAT
B5: Rv3515c/Rv3516 probe (Table 2 prints Rv3515c/Rv3532) (dsDNA)
DNA 1: ACCAAACTAGAACGTGTTACATTTCTTGA
DNA 2: TCAAGAAATGTAACACGTTCTAGTTTGGT
B6: Rv1894c/Rv1895 probe (dsDNA)
DNA 1: ATAGAACTGAAACGTGTTCTAGTTTAGTA
DNA 2: TACTAAACTAGAACACGTTTCAGTTCTAT
B7: Rv0940c probe (dsDNA)
DNA 1: GTCAAATTAGAACACGTTCTAATCTCGTT
DNA 2: AACGAGATTAGAACGTGTTCTAATTTGAC
B8: Rv0953c/Rv0954 probe (dsDNA)
DNA 1: GCGCAGGTGGAACACGTTCTAATTCGGTG
DNA 2: CACCGAATTAGAACGTGTTCCACCTGCGC
B9: His6-tagged KstRMtb (Mycobacterium tuberculosis TetR-type regulator Rv3574) (natural protein)
chain: MSSANTNTSSAPDAPPRAVMKVAVLAESELGSEAQRERRKRILDATMAIASKGGYEAVQMRAVADRADVAVGTLYRYFPSKVHLLVSALGREFSRIDAKTDRSAVAGATPFQRLNFMVGKLNRAMQRNPLLTEAMTRAYVFADASAASEVDQVEKLIDSMFARAMANGEPTEDQYHIARVISDVWLSNLLAWLTRRASATDVSKRLDLAVRLLIGDQDSA
B10: Rv3573c/Rv3574 (kstR) 29 bp probe (dsDNA)
DNA 1: TGCCCACTAGAACGTGTTCTAATAGTGCT
DNA 2: AGCACTATTAGAACACGTTCTAGTGGGCA
B11: Rv0551c/Rv0552 probe (dsDNA)
DNA 1: TCCAAATTGCAACACGTTCTAGTCTTGCC
DNA 2: GGCAAGACTAGAACGTGTTGCAATTTGGA
B12: Rv3531c/Rv3532 probe (dsDNA)
DNA 1: TCGACACTAGAACGTGTTCCTGTTTTGCG
DNA 2: CGCAAAACAGGAACACGTTCTAGTGTCGA
B13: Rv3570c/Rv3571 probe, motif 1 (dsDNA)
DNA 1: GAAAGACTAGAACACGTTCCGATTTGTGT
DNA 2: ACACAAATCGGAACGTGTTCTAGTCTTTC
B14: Rv3503c/Rv3504 probe (dsDNA)
DNA 1: CAGAGACTAGAACGTGTTACAACCGGGAA
DNA 2: TTCCCGGTTGTAACACGTTCTAGTCTCTG
B15: Rv3570c/Rv3571 probe, motif 2 (dsDNA)
DNA 1: TCATAACTAGAACATGTTACAGAAAACCC
DNA 2: GGGTTTTCTGTAACATGTTCTAGTTATGA

Experiments:
His6-KstRMtb (KstR) [1] = molecular target: T1, His6-KstRMtb (KstR); assay: EMSA
His6-KstRMtb (KstR) [2] = molecular target: T1, His6-KstRMtb (KstR); assay: competition
SEC = molecular target: the molecule itself; assay: SEC

Binder | binding result (His6-KstRMtb (KstR) [1]) | further results
B1 | no binding | 
B2 | binds | 
B3 |  | binding result (His6-KstRMtb (KstR) [2]): binds
B4 | binds | 
B5 | binds | 
B6 | binds | 
B7 | binds | 
B8 | binds | 
B9 |  | stoichiometry N (SEC): 2
B10 | binds | 
B11 | binds | 
B12 | binds | 
B13 | binds | 
B14 | binds | 
B15 | binds | 

— PMC1995591 (Molecular Microbiology, 2007)
